Results on one protein are retold here after paper PMC5110521, “EstDZ3: A New Esterolytic Enzyme Exhibiting Remarkable Thermostability” (Frontiers in Microbiology, 2016).

Common to all, as to experiment: purified protein
Holding throughout (assay type): biochemical, Dictyoglomus thermophilum
Holding throughout (conditions): 25 mM Tris-HCl pH 8, 0.05% Triton X-100, 75°C (standard reaction), substrate 0.1 to 1 mM

Substrate in series [1]: CCCCCCCCCCCC(=O)Oc1ccc([N+](=O)[O-])cc1
Substrate in series [2]: CC(=O)Oc1ccc([N+](=O)[O-])cc1
Substrate in series [3]: CCCC(=O)Oc1ccc([N+](=O)[O-])cc1
Substrate in series [4]: CCCCCCCC(=O)Oc1ccc([N+](=O)[O-])cc1
Substrate in series [5]: CCCCCCCCCC(=O)Oc1ccc([N+](=O)[O-])cc1

B1: EstDZ3 (Dictyoglomus thermophilum) (protein)
chain: MTENREPVVLKNQGQKIFGVIHIPEKTPAPFVLFCHGFTGTKIEPHRIFVKTAEALAKEGIGALRIDFRGSGDSEGSFKDMTVEGEVSDAMVAIEYLSQNNLVDKEKIGILGLSMGGAVASITSGRNPLIKSCVLWSAVCHFDIFFNRSPEEVSRIKDYGDFIDLGGNPVGKKFLSEIVNIKPLEEIKKRSIPVLIIHGSGDMVVPIQHAYDYFNGLKDTHKVKLEIIEGADHTFNSIEWEEKVIEKTVNWFKETL
notes: full-length ORF, 256 residues (modelled 1 to 256), no signal peptide; pLATE52 poly-histidine tag kept; E. coli BL21(DE3); heat treatment and Ni-NTA; forward primer encodes MTENREP
As for B1, the Km in series [1] was found to be 610 ± 140 µM; in series [2] it was 300 ± 70 µM; in series [3], 150 ± 20 µM; in series [4], 190 ± 10 µM; in series [5], 170 ± 10 µM. Besides, the Vmax in series [1] was 357 µmol/min/mg; in series [2], 355 µmol/min/mg; in series [3], 906 µmol/min/mg; in series [4] it was 501 µmol/min/mg; in series [5], 387 µmol/min/mg. Further, the kcat came out at 743 s⁻¹ in series [1]; 740 s⁻¹ in series [2]; 1890 s⁻¹ in series [3]; 104 s⁻¹ in series [4]; 80 s⁻¹ in series [5]. Moreover, the specificity constant (kcat/Km) in series [1] was 1.27e+06 M⁻¹ s⁻¹; in series [2], 2.43e+06 M⁻¹ s⁻¹; in series [3], 1.25e+07 M⁻¹ s⁻¹; in series [4], 557000 M⁻¹ s⁻¹; in series [5], 471000 M⁻¹ s⁻¹.

One may read the Km as the substrate concentration at which the rate is half of its maximum. As a reminder, the Vmax is the top rate of the reaction or transport when substrate is in excess. The term kcat denotes the maximal rate divided by the concentration of active sites. The term kcat/Km denotes the turnover number divided by the Michaelis constant.
